T1: hgp130.hFc (human gp130 aa E23-E619 with a hFc tag) (human, UniProt P40189 23-619)
T1 sequence: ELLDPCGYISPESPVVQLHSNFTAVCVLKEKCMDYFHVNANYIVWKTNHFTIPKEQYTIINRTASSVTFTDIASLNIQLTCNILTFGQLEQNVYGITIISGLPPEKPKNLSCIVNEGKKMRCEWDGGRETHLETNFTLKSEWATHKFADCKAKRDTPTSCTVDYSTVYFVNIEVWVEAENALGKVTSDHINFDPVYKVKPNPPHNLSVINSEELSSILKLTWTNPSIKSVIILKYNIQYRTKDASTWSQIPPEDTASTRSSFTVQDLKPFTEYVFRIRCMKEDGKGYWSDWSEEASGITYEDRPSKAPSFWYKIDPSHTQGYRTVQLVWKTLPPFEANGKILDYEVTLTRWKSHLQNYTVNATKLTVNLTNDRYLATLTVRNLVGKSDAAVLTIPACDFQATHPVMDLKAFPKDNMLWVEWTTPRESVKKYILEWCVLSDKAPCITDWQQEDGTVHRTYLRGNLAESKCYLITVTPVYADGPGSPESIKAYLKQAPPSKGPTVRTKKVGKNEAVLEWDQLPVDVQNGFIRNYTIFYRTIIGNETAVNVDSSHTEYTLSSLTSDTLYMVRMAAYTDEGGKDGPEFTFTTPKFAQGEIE


Target: T1, hgp130.hFc (human gp130 aa E23-E619 …)
Assay: SPR

Binder | Kd [nM] | binding result
short form hOSM WT (hOSM_short, aa A26-R221), C-terminal myc-myc-His (ligand) AAIGSCSKEYRVLLGQLQKQTDLMQDTSRLLDPYIRIQGLDVPKLREHCRERPGAFPSEETLRGLGRRGFLQTLNATLGCVLHRLADLEQRLPKAQDLERSGLNIEDLEKLQMARPNILGLRNNIYCMAQLLDNSDTAEPTKAGRGASQPPTPTPASDAFQRKLEGCRFLHGYHRFMHSVGRVFSKWGESPNRSRR | 8.58 | –
short form hOSM mutant V37R (ligand) AAIGSCSKEYRRLLGQLQKQTDLMQDTSRLLDPYIRIQGLDVPKLREHCRERPGAFPSEETLRGLGRRGFLQTLNATLGCVLHRLADLEQRLPKAQDLERSGLNIEDLEKLQMARPNILGLRNNIYCMAQLLDNSDTAEPTKAGRGASQPPTPTPASDAFQRKLEGCRFLHGYHRFMHSVGRVFSKWGESPNRSRR | – | binds

Results, then the binder that gave them:

Kd [nM] | binding result | Binder
69 | – | short form hOSM variant C31S/C152S (ligand) AAIGSSSKEYRVLLGQLQKQTDLMQDTSRLLDPYIRIQGLDVPKLREHCRERPGAFPSEETLRGLGRRGFLQTLNATLGCVLHRLADLEQRLPKAQDLERSGLNIEDLEKLQMARPNILGLRNNIYSMAQLLDNSDTAEPTKAGRGASQPPTPTPASDAFQRKLEGCRFLHGYHRFMHSVGRVFSKWGESPNRSRR
40.9 | – | short form hOSM variant Δ(A26-E34)/C152S (aa Y35-R221) (ligand) YRVLLGQLQKQTDLMQDTSRLLDPYIRIQGLDVPKLREHCRERPGAFPSEETLRGLGRRGFLQTLNATLGCVLHRLADLEQRLPKAQDLERSGLNIEDLEKLQMARPNILGLRNNIYSMAQLLDNSDTAEPTKAGRGASQPPTPTPASDAFQRKLEGCRFLHGYHRFMHSVGRVFSKWGESPNRSRR
